Measured values taken from patent US20110003886, “SELECTION OF RNA APTAMERS AS ANTI-MALARIA AGENTS” (FORSKARPATENT I SYD AB, published 2011).

Tests used:
[1] = test system: PfEMP1 on FCR3S1.2-infected erythrocytes (Plasmodium falciparum); assay: cell_activity; settings: 2'-F on all pyrimidines (C and U) [positions count without the 20-nt 5-prime fixed region]; rosette rate about 35% of control at 258 nM; 1 mM MgCl2
[2] = test system: GST-DBL1alpha (PfEMP1 DBL1alpha) (Plasmodium falciparum); assay: competition; settings: 2'-F on all pyrimidines (C and U) [positions count without the 20-nt 5-prime fixed region], 30-fold molar excess unlabelled RNA
[3] = test system: DBL1alpha-His (PfEMP1 Duffy binding-like domain 1alpha, strain FCR3S1.2) (Plasmodium falciparum); assay: pulldown; settings: 2'-F on all pyrimidines (C and U) [positions count without the 20-nt 5-prime fixed region], 40 nM RNA, 350-400 nM protein, Ni-NTA beads, PBSM, yeast RNA, 37 C, RNA assayed as 90 nt with 2x20 nt flanks
BSA = BSA (UniProt P02769 P02769:25-607); assay: EMSA; 10 ug BSA negative control; settings: label: 32P; complex secondary structure predicted by mfold
BSA, sequence (P02769 25-607, one chain of several): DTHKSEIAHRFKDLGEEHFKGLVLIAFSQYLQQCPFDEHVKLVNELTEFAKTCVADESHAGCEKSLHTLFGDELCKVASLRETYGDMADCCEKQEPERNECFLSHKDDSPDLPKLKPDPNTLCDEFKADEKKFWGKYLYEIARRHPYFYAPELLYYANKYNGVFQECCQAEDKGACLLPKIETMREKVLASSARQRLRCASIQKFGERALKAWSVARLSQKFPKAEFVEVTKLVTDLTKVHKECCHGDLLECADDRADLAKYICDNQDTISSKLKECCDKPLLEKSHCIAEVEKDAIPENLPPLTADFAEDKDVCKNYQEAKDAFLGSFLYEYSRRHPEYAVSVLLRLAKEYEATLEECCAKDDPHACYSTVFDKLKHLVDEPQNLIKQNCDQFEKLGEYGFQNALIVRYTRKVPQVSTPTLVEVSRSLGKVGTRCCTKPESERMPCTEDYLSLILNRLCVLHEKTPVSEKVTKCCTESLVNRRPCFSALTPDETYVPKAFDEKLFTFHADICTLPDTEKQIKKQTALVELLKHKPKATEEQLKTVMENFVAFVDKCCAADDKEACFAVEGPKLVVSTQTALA
Procedure: To study RNA/DBL1α^His interaction in solution a number of EMSA experiments were conducted. The protein used for these experiments was freshly eluted from the Ni-NTA beads to avoid long storage and freezing in solution to prevent precipitation of DBL1α^His The RNA was internally labelled with ³²P-ATP and migration after incubation with DBL1α^His or BSA was analysed on 10% native polyacrylamide gel. The upper band (177 nucleotide long RNA) seen in FIG. 4 is an incorrect product of the T7 transcription that is derived from a longer transcription template. This template is a product generated in the previous PCR reaction (binding of PCR primer to en external T7 site in the TOPO-vector). […] Throughout the EMSA experiments conducted, no real band shift was observed (RNA molecule bound to protein with slower migration).
FIG. 5. Mobility shift assay of selected clone e05. ˜30 ng internal ³²P-[αATP] labelled RNA was incubated with ˜300-400 ng DBL1α^His for 10 min. and loaded on 10% TBE-buffered PAA gel (+) together with negative control (−) incubated in the presence of 10 μg BSA.

| Molecule | activity (nM (complete rosette disruption)) [1] | binding signal (% decrease of labelled RNA recovery) [2] | binding signal (% RNA recovery) ([3]; clone also listed as SEQ 5/11) | binding signal (% RNA recovery) ([3]; clone also listed as SEQ 6/12) | binding signal (% decrease of labelled RNA recovery) ([2]; 60% decrease at 45-fold, no decrease with 30-fold e02 or pool 0) | binding signal (% RNA recovery) ([3]; clone also listed as SEQ 4/10) | binding result (BSA) |
| --- | --- | --- | --- | --- | --- | --- | --- |
| GGGAAUUCGAGCUCGGUACCUCAUGUGCCAGUGUUUGAAAAAACGCGUUGAUUGCUGGUGUGGUGAGCUAGUCGUAGCAAGCUCUGCAGUCG | 387 | 40 | 70 |  |  |  |  |
| GGGAAUUCGAGCUCGGUACCCUUCGAACGGCCCUGGUUGUUGGUUUUAAUUCAUUUAUCCGCGUGGUCACGGUCGUAGCAAGCUCUGCAGUCG [e05] | 387 | 40 |  | 70 |  |  |  |
| GGGAAUUCGAGCUCGGUACCUGCCAACCUUCGAUGCAAGAUAAUACUUUUGAUGGUGUAGUCGUAUUGUUCGUAGCAAGCUCUGCAGUCG [d12] | 387 |  |  |  | 40 | 70 |  |
| e05 (ssRNA, 2'-F on all pyrimidines (C and U) [positions count without the 20-nt 5-prime fixed region]) RNA: GGGAAUUCGAGCUCGGUACCCUUCGAACGGCCCUGGUUGUUGGUUUUAAUUCAUUUAUCCGCGUGGUCACGGUCGUAGCAAGCUCUGCAGUCG |  |  |  |  |  |  | no binding |
